Test results taken from patent US20240116985A1, “STAPLED PEPTIDES AND METHODS THEREOF” (priority 2020, published 2024).
Starred links: 1 amine or outer side, 2 acyl side, 3 side chain; linkers in the order of their positions; H or OH if unused. Positions of bridges follow the written chain, without caps; N, C: chain ends. Non-standard residues stand in square brackets, D forms with d. Groups on a side chain read outwards from the residue. Primed or numbered codes have the meaning given here. *: point of attachment. PyrS2″ = (S)-3-amino-1-((pent-4-en-1-yloxy)carbonyl)pyrrolidine-3-carboxylic acid (stapling residue), C=CCCCOC(=O)N1CC[C@@](N[*:1])(C(=O)[*:2])C1; B5(4) = 2,2-bis(4-pentenyl)glycine = 2-amino-2-(pent-4-en-1-yl)hept-6-enoic acid (stitching residue), C=CCCCC(CCCC=C)(N[*:1])C(=O)[*:2]; B5(5) = 2,2-bis(4-pentenyl)glycine, 2-amino-2-(pent-4-en-1-yl)hept-6-enoic acid (stitching residue), C=CCCCC(CCCC=C)(N[*:1])C(=O)[*:2]; PyrS2 = (S)-3-amino-1-((pent-4-en-1-yloxy)carbonyl)pyrrolidine-3-carboxylic acid, C=CCCCOC(=O)N1CC[C@@](N[*:1])(C(=O)[*:2])C1; B5(27) = 2-amino-2-(pent-4-en-1-yl)hept-6-enoic acid (two alkene side-chain arms), C=CCCCC(CCCC=C)(N[*:1])C(=O)[*:2]; MePpzAsn = (S)-2-amino-4-(4-methylpiperazin-1-yl)-4-oxobutanoic acid, CN1CCN(C(=O)C[C@H](N[*:1])C(=O)[*:2])CC1; F2PipNva = (S)-2-amino-5-(4,4-difluoropiperidin-1-yl)pentanoic acid, O=C([C@H](CCCN1CCC(F)(F)CC1)N[*:1])[*:2]; F2PipAbu = (S)-2-amino-4-(4,4-difluoropiperidin-1-yl)butanoic acid, O=C([C@H](CCN1CCC(F)(F)CC1)N[*:1])[*:2]; MePpzNva = (S)-2-amino-5-(4-methylpiperazin-1-yl)pentanoic acid, CN1CCN(CCC[C@H](N[*:1])C(=O)[*:2])CC1; MePpzAbu = (S)-2-amino-4-(4-methylpiperazin-1-yl)butanoic acid, CN1CCN(CC[C@H](N[*:1])C(=O)[*:2])CC1; 4TriA = (S)-2-amino-3-(1H-1,2,3-triazol-4-yl)propanoic acid, O=C([C@H](Cc1c[nH]nn1)N[*:1])[*:2]; Lithocholoyl = C[C@H](CCC(=O)*)[C@H]1CC[C@H]2[C@@H]3CC[C@@H]4C[C@H](O)CC[C@]4(C)[C@H]3CC[C@]12C; MorphAsn = (S)-2-amino-4-morpholino-4-oxobutanoic acid, O=C(C[C@H](N[*:1])C(=O)[*:2])N1CCOCC1; B5(3) = 2,2-bis(4-pentenyl)glycine (stitching residue), C=CCCCC(CCCC=C)(N[*:1])C(=O)[*:2]; Me3AdamantC = 3,5,7-trimethyladamantane-1-carbonyl, CC12CC3(C)CC(C)(C1)CC(C(=O)*)(C2)C3; MorphAbu = (S)-2-amino-4-morpholinobutanoic acid, O=C([C@H](CCN1CCOCC1)N[*:1])[*:2]; Phe(4-(3-Py)) = N[C@@H](Cc1ccc(-c2cccnc2)cc1)C(=O)O; Nva(5-morpholino) = N[C@@H](CCCN1CCOCC1)C(=O)O; Bta = N[C@@H](Cc1csc2ccccc12)C(=O)O; αAllylPro = C=CC[C@@]1(C(=O)O)CCCN1; tBuAla = CC(C)(C)C[C@H](N)C(=O)O; 3Thi = N[C@@H](Cc1ccsc1)C(=O)O; PEG2′ = not defined here

B1: I-1476 (peptide)
peptide: Ac-[αAllylPro]D[tBuAla][B5(4)]DDAK([PEG2′-Me3AdamantC])FL[PyrS2″][3Thi][Bta]Q-NH2
modifications: staple 1-4, 4-11
B2: I-1477 (peptide)
peptide: Ac-[αAllylPro]D[tBuAla][B5(5)]DDAAFL[PyrS2″][3Thi][Bta]QK(Lithocholoyl)-NH2
modifications: staple 1-4, 4-11
B3: I-1481 (peptide)
peptide: Ac-[αAllylPro]D[tBuAla][B5(3)]DD[Nva(5-morpholino)]AFL[PyrS2″][3Thi][Bta]Q-NH2
modifications: staple 1-4, 4-11
B4: I-1504 (peptide)
peptide: Ac-[αAllylPro]D[tBuAla][B5(27)]DDA[MorphAbu]FL[PyrS2][3Thi][Bta]Q-NH2
modifications: staple 1-4, 4-11
B5: I-1492 (peptide)
peptide: Ac-[αAllylPro]D[tBuAla][B5(3)]DDAAFL[PyrS2″][3Thi][Bta]N-NH2
modifications: staple 1-4, 4-11
B6: I-1486 (peptide)
peptide: Ac-[αAllylPro]D[tBuAla][B5(3)]DDAAF[F2PipNva][PyrS2″][3Thi][Bta]Q-NH2
modifications: staple 1-4, 4-11
B7: I-1487 (peptide)
peptide: Ac-[αAllylPro]D[tBuAla][B5(3)]DDAAF[MorphAsn][PyrS2″][3Thi][Bta]Q-NH2
modifications: staple 1-4, 4-11
B8: I-1507: Ac-PL3-Asp-Npg-B5-Asp-Asp-Ala-MorphAsn-Phe-Leu-PyrS2-3Thi-BztA-Gln-NH2 (peptide)
peptide: Ac-[αAllylPro]D[tBuAla][B5(27)]DDA[MorphAsn]FL[PyrS2][3Thi][Bta]Q-NH2
modifications: staple 1-4, 4-11
B9: I-1478 (peptide)
peptide: Ac-[αAllylPro]D[tBuAla][B5(4)]DDAAFL[PyrS2″][3Thi][Bta]QK([PEG2′-Lithocholoyl])-NH2
modifications: staple 1-4, 4-11
B10: I-1482 (peptide)
peptide: Ac-[αAllylPro]D[tBuAla][B5(3)]DD[F2PipNva]AFL[PyrS2″][3Thi][Bta]Q-NH2
modifications: staple 1-4, 4-11
B11: I-1475 (peptide)
peptide: Ac-[αAllylPro]D[tBuAla][B5(5)]DDAK(Me3AdamantC)FL[PyrS2″][3Thi][Bta]Q-NH2
modifications: staple 1-4, 4-11
B12: I-1495 (peptide)
peptide: Ac-[αAllylPro]D[tBuAla][B5(27)]DDAAFL[PyrS2][3Thi][Bta]V-NH2
modifications: staple 1-4, 4-11
B13: I-1488 (peptide)
peptide: Ac-[αAllylPro]D[tBuAla][B5(3)]DDAAF[MePpzAsn][PyrS2″][3Thi][Bta]Q-NH2
modifications: staple 1-4, 4-11
B14: I-1498 (peptide)
peptide: Ac-[αAllylPro]D[tBuAla][B5(27)]DDAAFL[PyrS2][3Thi][Bta][4TriA]-NH2
modifications: staple 1-4, 4-11
B15: I-1502 (peptide)
peptide: Ac-[αAllylPro]D[tBuAla][B5(27)]DDA[F2PipNva]FL[PyrS2][3Thi][Bta]Q-NH2
modifications: staple 1-4, 4-11
B16: I-1489 (peptide)
peptide: Ac-[αAllylPro]D[tBuAla][B5(3)]DD[Phe(4-(3-Py))]AFL[PyrS2″]F[Bta]Q-NH2
modifications: staple 1-4, 4-11
B17: I-1505: Ac-PL3-Asp-Npg-B5-Asp-Asp-Ala-F2PipAbu-Phe-Leu-PyrS2-3Thi-BztA-Gln-NH2 (peptide)
peptide: Ac-[αAllylPro]D[tBuAla][B5(27)]DDA[F2PipAbu]FL[PyrS2][3Thi][Bta]Q-NH2
modifications: staple 1-4, 4-11
B18: I-1503 (peptide)
peptide: Ac-[αAllylPro]D[tBuAla][B5(4)]DDA[MePpzNva]FL[PyrS2][3Thi][Bta]Q-NH2
modifications: staple 1-4, 4-11
B19: I-1480 (peptide)
peptide: Ac-[αAllylPro]D[tBuAla][B5(3)]DDAAFL[PyrS2″][3Thi][Bta]QK([PEG2′-Me3AdamantC])-NH2
modifications: staple 1-4, 4-11
B20: I-1501 (peptide)
peptide: Ac-[αAllylPro]D[tBuAla][B5(27)]DDA[Nva(5-morpholino)]FL[PyrS2][3Thi][Bta]Q-NH2
modifications: staple 1-4, 4-11
B21: I-1479 (peptide)
peptide: Ac-[αAllylPro]D[tBuAla][B5(5)]DDAAFL[PyrS2″][3Thi][Bta]QK(Me3AdamantC)-NH2
modifications: staple 1-4, 4-11
B22: I-1473 (peptide)
peptide: Ac-[αAllylPro]D[tBuAla][B5(5)]DDAK(Lithocholoyl)FL[PyrS2][3Thi][Bta]Q-NH2
modifications: staple 1-4, 4-11
B23: I-1496 (peptide)
peptide: Ac-[αAllylPro]D[tBuAla][B5(27)]DDAAFL[PyrS2][3Thi][Bta]F-NH2
modifications: staple 1-4, 4-11
B24: I-1506: Ac-PL3-Asp-Npg-B5-Asp-Asp-Ala-MePpzAbu-Phe-Leu-PyrS2-3Thi-BztA-Gln-NH2 (peptide)
peptide: Ac-[αAllylPro]D[tBuAla][B5(4)]DDA[MePpzAbu]FL[PyrS2][3Thi][Bta]Q-NH2
modifications: staple 1-4, 4-11
B25: I-1497 (peptide)
peptide: Ac-[αAllylPro]D[tBuAla][B5(27)]DDAAFL[PyrS2][3Thi][Bta]W-NH2
modifications: staple 1-4, 4-11
B26: I-1474 (peptide)
peptide: Ac-[αAllylPro]D[tBuAla][B5(4)]DDAK([PEG2′-Lithocholoyl])FL[PyrS2″][3Thi][Bta]Q-NH2
modifications: staple 1-4, 4-11
B27: I-1485 (peptide)
peptide: Ac-[αAllylPro]D[tBuAla][B5(3)]DDAAF[Nva(5-morpholino)][PyrS2″][3Thi][Bta]Q-NH2
modifications: staple 1-4, 4-11
B28: I-1483 (peptide)
peptide: Ac-[αAllylPro]D[tBuAla][B5(3)]DD[MorphAsn]AFL[PyrS2″][3Thi][Bta]Q-NH2
modifications: staple 1-4, 4-11
B29: I-1484 (peptide)
peptide: Ac-[αAllylPro]D[tBuAla][B5(3)]DD[MePpzAsn]AFL[PyrS2″][3Thi][Bta]Q-NH2
modifications: staple 1-4, 4-11
B30: I-1494 (peptide)
peptide: Ac-[αAllylPro]D[tBuAla][B5(27)]DDAAFL[PyrS2][3Thi][Bta]T-NH2
modifications: staple 1-4, 4-11

The binders below were run against full-length beta-Catenin (Uniprot ID P35222) (Homo sapiens (Human)) (UniProt P35222) (assay: fluorescence polarization competition; displacement of 5FAM-TCF4(10-53) from full-length beta-catenin).

In order of rising IC50:
1. B5  5 nM
2. B6  5 nM
3. B30  5 nM
4. B13  6 nM
5. B3  7 nM
6. B7  7 nM
7. B10  7 nM
8. B27  7 nM
9. B1  16 nM
10. B16  17 nM
11. B28  22 nM
12. B12  24 nM
13. B8  30 nM
14. B29  30 nM
15. B15  34 nM
16. B19  37 nM
17. B18  38 nM
18. B17  39 nM
19. B26  41 nM
20. B4  46 nM
21. B20  46 nM
22. B14  48 nM
23. B25  50 nM
24. B23  51 nM
25. B9  75 nM
26. B24  89 nM
27. B11  113 nM
28. B2  148 nM
29. B21  173 nM
30. B22  224 nM
